We go through 30 molecules from US20080219971A1 (VACCINEX, published 2008).

By EC50 (read off the curve) is commonly meant the concentration at which the effect is half-maximal. For orientation: Kd means the constant that tells how readily two partners part at equilibrium.

Numbering of substitutions follows the chain as printed. Names and notes keep the numbering of the source.

For assay [1], the target named is T1, huErb2-Fc (human, UniProt P04626 23-652).
T1 construct: Negative control antigen; also called huErb2-Fc antigen
Description: ELISA on huErb2-Fc antigen (Neg Ctrl).

Assay [2] concerns the target T2, streptavidin (UniProt P22629 37-163, limits assumed).
T2 construct: Negative control antigen
Put plainly: ELISA. On the technique in general: ELISA stands for enzyme-linked immunosorbent assay.

In assay [3] the target is T3, human serum albumin (human, UniProt P02768 25-609).
T3 construct: Negative control antigen
Description: ELISA.

The target of assay [4] is T4, BSA (UniProt P02769 25-607).
T4 construct: Negative control antigen
Put plainly: ELISA.

Assay [5] has as its target T5, human CD100-Fc (human, UniProt Q92854 22-734, limits assumed).
T5 construct: also called CD100-Fc antigen
T5 sequence (looked up): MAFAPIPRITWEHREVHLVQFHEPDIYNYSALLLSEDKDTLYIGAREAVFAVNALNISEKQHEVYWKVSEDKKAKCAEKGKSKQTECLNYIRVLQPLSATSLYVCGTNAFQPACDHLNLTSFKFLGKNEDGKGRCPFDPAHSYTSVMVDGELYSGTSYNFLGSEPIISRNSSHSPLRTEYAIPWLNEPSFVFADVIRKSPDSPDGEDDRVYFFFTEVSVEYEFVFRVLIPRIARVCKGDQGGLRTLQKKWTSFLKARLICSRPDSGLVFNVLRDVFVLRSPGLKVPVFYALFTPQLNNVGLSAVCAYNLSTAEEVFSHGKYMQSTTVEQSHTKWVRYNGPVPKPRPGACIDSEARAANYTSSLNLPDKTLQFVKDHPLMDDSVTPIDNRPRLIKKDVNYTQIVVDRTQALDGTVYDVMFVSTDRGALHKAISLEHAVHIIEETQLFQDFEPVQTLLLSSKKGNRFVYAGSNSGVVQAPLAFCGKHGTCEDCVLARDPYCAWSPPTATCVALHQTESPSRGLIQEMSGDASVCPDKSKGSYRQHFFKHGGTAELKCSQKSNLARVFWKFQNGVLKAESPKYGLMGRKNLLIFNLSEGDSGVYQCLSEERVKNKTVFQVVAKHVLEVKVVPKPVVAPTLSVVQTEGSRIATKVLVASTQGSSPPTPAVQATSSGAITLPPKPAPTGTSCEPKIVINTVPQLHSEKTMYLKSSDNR
Put plainly: ELISA on CD100-Fc antigen.

Assay [6] concerns the target T6, Human CD100 (human, UniProt Q92854 22-734, limits assumed).
T6 construct: also called SEMA4D; Hu CD100
T6 sequence (looked up): T5 sequence (looked up)
Put plainly: ELISA method of Friguet et al.; column head 'Affinity (nM) IC50 ELISA'; antigen not named. How it is done: Antibody affinity was measured according to the ELISA method described in Friguet et al. (1985) J Immunol Methods 77(2):305-19.

Assay [7] addresses T1, huErb2-Fc. Description: ELISA.
The target of assay [8] is T6, Human CD100. Description: affinity testing, method and unit not printed in Example 10 (nM as in Table 3); mutant value, before the parentheses.
Assay [9] concerns the target T6, Human CD100. Put plainly: affinity testing, method and unit not printed in Example 10 (nM as in Table 3).
Assay [10] addresses T6, Human CD100. The assay is described as above. The source holds these as a separate data set.

T4 sequence (P02769 25-607 limits assumed): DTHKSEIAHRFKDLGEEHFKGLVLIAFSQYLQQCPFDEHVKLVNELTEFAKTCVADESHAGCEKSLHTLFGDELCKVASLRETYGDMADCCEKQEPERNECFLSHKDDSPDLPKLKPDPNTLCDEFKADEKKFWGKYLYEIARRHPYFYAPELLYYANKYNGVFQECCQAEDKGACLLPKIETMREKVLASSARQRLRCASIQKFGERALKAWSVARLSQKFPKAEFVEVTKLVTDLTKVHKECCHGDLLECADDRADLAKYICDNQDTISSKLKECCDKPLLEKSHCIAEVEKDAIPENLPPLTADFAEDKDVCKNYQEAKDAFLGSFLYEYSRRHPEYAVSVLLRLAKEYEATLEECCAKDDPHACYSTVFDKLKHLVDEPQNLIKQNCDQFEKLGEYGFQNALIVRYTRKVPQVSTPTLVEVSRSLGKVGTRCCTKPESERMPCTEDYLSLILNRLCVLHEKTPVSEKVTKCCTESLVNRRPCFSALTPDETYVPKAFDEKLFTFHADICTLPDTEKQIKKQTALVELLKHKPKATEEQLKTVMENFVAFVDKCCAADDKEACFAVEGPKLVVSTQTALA
T3 sequence (P02768 25-609 limits assumed): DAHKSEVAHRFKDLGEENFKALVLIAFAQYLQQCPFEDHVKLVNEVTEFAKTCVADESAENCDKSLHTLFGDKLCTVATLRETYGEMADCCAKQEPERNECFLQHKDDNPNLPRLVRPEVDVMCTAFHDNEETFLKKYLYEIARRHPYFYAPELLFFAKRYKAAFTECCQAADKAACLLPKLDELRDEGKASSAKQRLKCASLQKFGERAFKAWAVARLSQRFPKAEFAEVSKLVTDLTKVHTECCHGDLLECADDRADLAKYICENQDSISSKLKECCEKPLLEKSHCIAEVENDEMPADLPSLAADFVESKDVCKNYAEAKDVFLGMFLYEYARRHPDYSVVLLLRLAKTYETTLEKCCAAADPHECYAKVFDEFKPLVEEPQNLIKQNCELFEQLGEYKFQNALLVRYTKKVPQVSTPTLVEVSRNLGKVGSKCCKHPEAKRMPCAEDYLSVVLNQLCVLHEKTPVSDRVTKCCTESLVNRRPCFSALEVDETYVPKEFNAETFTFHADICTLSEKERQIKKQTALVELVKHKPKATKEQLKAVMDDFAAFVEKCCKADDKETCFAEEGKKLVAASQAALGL
T2 sequence (P22629 37-163 limits assumed): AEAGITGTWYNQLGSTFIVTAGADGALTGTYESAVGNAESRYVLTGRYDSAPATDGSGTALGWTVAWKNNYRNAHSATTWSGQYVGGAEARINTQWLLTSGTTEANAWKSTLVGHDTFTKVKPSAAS

B1: MAb 301 (antibody, human IgG1, V domains shown)
VH: EVQLQQSGPELVKPGASVKMSCKASGYTFTDYYMDWVKQSHGESFEWIGRVNPYHGGATYNQKFKGKATLTVDKSSRTAYMELNSLTYEDSAVYYCAREENSYDGYYGMDYWGQGTTVTVSS
VL: DIVLTQSPSSLSVSAGEKVTMDCKSSQSLFNSGNQKNYLAWYHQKPGQPPKLLIYGASTRESGVPDRFTGSGSGTDFTLTISSVQAEDLAVYYCQNDHTYPYTFGGGTKLEIK
notes: Chimeric, human IgG1, human kappa constant domain; also called chimeric BD16; H387/L124
Take B1: the binding result in assay [1] is recorded as “no binding (tested: 500 ng/ml)”; in assay [2], “no binding”; in assay [3], “no binding”; in assay [4] it was “no binding”. Further, the “EC50 (read off the curve)” value in assay [5] was ~0.02 µg/mL.

B2: MAb 1656 (antibody, human IgG1, V domains shown)
VH: QVQLVQSGAEVKKPGSSVKVSCKASGYTFTDYYMDWVRQAPGQGLEWMGRVNPYHGGATYNQKFKGRVTITADKSTSTAYMELSSLRSEDTAVYYCAREENSYDGYYGMDYWGQGTLVTVSS
VL: DIVMTQSPLSLPVSPGEPATINCKSSQSLFNSGNQKNYLAWYLQKPGQPPKLLIYGASTRESGVPDRFSGSGSGTDFTLTISSLQAEDVAVYYCQNDHTYPYTFGQGTKLEIK
notes: Humanized BD16, fully human frameworks, human IgG1; also called H1651/L284
In turn, B2 yielded a dissociation constant Kd in [6] of 0.12 nM. The binding result in [2], in assay [7], in assay [3] and in [4] was “no binding” each time.

B3: MAb 2139 (antibody, V domains shown)
VH: B2 VH with K23T
VL: B2 VL
notes: H1651 mutant VH combined with L284; also called H1651 K23T with L284
On to B3, for which the equilibrium dissociation constant (Kd) in assay [8] was 0.61 nM.

B4: MAb 2274 (antibody, V domains shown)
VH: B2 VH with Q6A, D31K
VL: B2 VL
notes: Double mutant of H1651 with L284; also called H1651 Q6A D31K with L284
For the molecule B4, the dissociation constant Kd in [9] amounted to 0.1 nM.

B5: MAb 2284 (antibody, V domains shown)
VH: B2 VH with K23T, Y60F
VL: B2 VL
notes: Double mutant of H1651 with L284; also called H1651 K23T Y60F with L284
In [9], B5 had a Kd of 0.24 nM.

B6: MAb 2219 (antibody, V domains shown)
VH: B2 VH with T59W
VL: B2 VL
notes: H1651 mutant VH combined with L284; also called H1651 T59W with L284
The molecule B6 came in with an equilibrium dissociation constant (Kd) in [10] of 0.08 nM.

B7: MAb 2144 (antibody, V domains shown)
VH: B2 VH with Q6A
VL: B2 VL
notes: H1651 mutant VH combined with L284; also called H1651 Q6A with L284
As to B7, in assay [8], the equilibrium dissociation constant (Kd) was 0.43 nM.

B8: MAb 2163 (antibody, V domains shown)
VH: B2 VH with D31K
VL: B2 VL
notes: H1651 mutant VH combined with L284; also called H1651 D31K with L284
For B8, the Kd in assay [8] worked out at 0.06 nM.

B9: MAb 2283 (antibody, V domains shown)
VH: B2 VH with K23T, T59F
VL: B2 VL
notes: Double mutant of H1651 with L284; also called H1651 K23T T59F with L284
With B9, in [9], the affinity, expressed as Kd, was 0.13 nM.

B10: MAb 2224 (antibody, V domains shown)
VH: B2 VH with Y60P
VL: B2 VL
notes: H1651 mutant VH combined with L284; also called H1651 Y60P with L284
As for B10, in [10], binding was characterised by a dissociation constant (Kd) of 0.07 nM.

B11: MAb 2281 (antibody, V domains shown)
VH: B2 VH with K23T, G57F
VL: B2 VL
notes: Double mutant of H1651 with L284; also called H1651 K23T G57F with L284
On to B11, for which the Kd in assay [9] is 0.09 nM.

B12: MAb 2216 (antibody, V domains shown)
VH: B2 VH with T59F
VL: B2 VL
notes: H1651 mutant VH combined with L284; also called H1651 T59F with L284
In the case of B12, in [8], the Kd turned out to be 0.06 nM.

B13: MAb 2277 (antibody, V domains shown)
VH: B2 VH with Q6A, T59F
VL: B2 VL
notes: Double mutant of H1651 with L284; also called H1651 Q6A T59F with L284
In the case of B13, in assay [9], binding was characterised by a dissociation constant (Kd) of 0.09 nM.

B14: MAb 1807 (antibody, human IgG4, V domains shown)
VH: B2 VH with M48I, R67K, V68A, A72V
VL: B2 VL
notes: Humanized BD16, human IgG4; also called H1235/L284
In assay [6], B14 displayed a Kd of 0.12 nM. The binding result in assay [2], in [7], in [3] and in [4] was “no binding” throughout.

B15: MAb 2276 (antibody, V domains shown)
VH: B2 VH with Q6A, G57Y
VL: B2 VL
notes: Double mutant of H1651 with L284; also called H1651 Q6A G57Y with L284
The molecule B15 registered a Kd in [9] of 0.09 nM.

B16: MAb 2218 (antibody, V domains shown)
VH: B2 VH with T59V
VL: B2 VL
notes: H1651 mutant VH combined with L284; also called H1651 T59V with L284
Regarding B16, the equilibrium dissociation constant (Kd) in assay [10] worked out at 0.08 nM.

B17: MAb 2208 (antibody, V domains shown)
VH: B2 VH with A58G
VL: B2 VL
notes: H1651 mutant VH combined with L284; also called H1651 A58G with L284
Turning to B17, the dissociation constant Kd in [8] was determined as 0.08 nM.

B18: MAb 2207 (antibody, V domains shown)
VH: B2 VH with G57Y
VL: B2 VL
notes: H1651 mutant VH combined with L284; also called H1651 G57Y with L284
As to B18, the equilibrium dissociation constant (Kd) in assay [10] came out at 0.06 nM.

B19: MAb 2279 (antibody, V domains shown)
VH: B2 VH with Q6A, Y60V
VL: B2 VL
notes: Double mutant of H1651 with L284; also called H1651 Q6A Y60V with L284
In turn, B19 returned a dissociation constant (Kd) in [9] of 0.14 nM.

B20: MAb 2225 (antibody, V domains shown)
VH: B2 VH with Y60V
VL: B2 VL
notes: H1651 mutant VH combined with L284; also called H1651 Y60V with L284
Turning to B20, the equilibrium dissociation constant (Kd) in assay [10] came out at 0.04 nM.

B21: MAb 2282 (antibody, V domains shown)
VH: B2 VH with K23T, G57Y
VL: B2 VL
notes: Double mutant of H1651 with L284; also called H1651 K23T G57Y with L284
Regarding B21, the dissociation constant Kd in [9] is 0.09 nM.

B22: MAb 2125 (antibody, V domains shown)
VH: B2 VH with E100D
VL: B2 VL
notes: H1651 mutant VH combined with L284; also called H1651 E100D with L284
Take B22: in assay [8], the Kd was 0.66 nM.

B23: MAb 2280 (antibody, V domains shown)
VH: B2 VH with K23T, D31K
VL: B2 VL
notes: Double mutant of H1651 with L284; also called H1651 K23T D31K with L284
In turn, B23 had a Kd in assay [9] of 0.13 nM.

B24: MAb 2117 (antibody, V domains shown)
VH: B2 VH with D104T
VL: B2 VL
notes: H1651 mutant VH combined with L284; also called H1651 D104T with L284
As to B24, the dissociation constant (Kd) in [8] was 0.52 nM.

B25: MAb 2285 (antibody, V domains shown)
VH: B2 VH with K23T, Y60V
VL: B2 VL
notes: Double mutant of H1651 with L284; also called H1651 K23T Y60V with L284
Take B25: the equilibrium dissociation constant (Kd) in assay [9] stood at 0.1 nM.

B26: MAb 2206 (antibody, V domains shown)
VH: B2 VH with G57W
VL: B2 VL
notes: H1651 mutant VH combined with L284; also called H1651 G57W with L284
B26 gave a Kd in assay [10] of 0.09 nM.

B27: MAb 2278 (antibody, V domains shown)
VH: B2 VH with Q6A, Y60F
VL: B2 VL
notes: Double mutant of H1651 with L284; also called H1651 Q6A Y60F with L284
Consider B27, for which binding in assay [9] was characterised by a dissociation constant (Kd) of 0.11 nM.

B28: MAb 2275 (antibody, V domains shown)
VH: B2 VH with Q6A, G57F
VL: B2 VL
notes: Double mutant of H1651 with L284; also called H1651 Q6A G57F with L284
In the case of B28, the Kd in assay [9] worked out at 0.09 nM.

B29: MAb 2220 (antibody, V domains shown)
VH: B2 VH with Y60F
VL: B2 VL
notes: H1651 mutant VH combined with L284; also called H1651 Y60F with L284
In the case of B29, the dissociation constant (Kd) in assay [8] worked out at 0.04 nM.

B30: MAb 2202 (antibody, V domains shown)
VH: B2 VH with G57F
VL: B2 VL
notes: H1651 mutant VH combined with L284; also called H1651 G57F with L284
With B30, the Kd in assay [8] came out at 0.06 nM.
